{"source": "patent US20230293738A1", "about": "(Y MABS THERAPEUTICS, published 2023)", "binders": {"B1": {"name": "175Lu-DTPA-8H9-antibody (CAR3.6) (antibody, mouse IgG1, kappa, V domains shown)", "VH": "QVQLQQSGAELVKPGASVKLSCKASGYTFTNYDINWVRQRPEQGLEWIGWIFPGDGSTQYNEKFKGKATLTTDTSSSTAYMQLSRLTSEDSAVYFCARQTTATWFAYWGQGTLVTVSA", "VL": "DIVMTQSPATLSVTPGDRVSLSCRASQSISDYLHWYQQKSHESPRLLIKYASQSISGIPSRFSGSGSGSDFTLSINSVEPEDVGVYYCQNGHSFPLTFGAGTKLELKR", "modifications": "p-SCN-Bn-CHX-A″-DTPA conjugated (CAR 3.6 per antibody), labelled with cold lutetium-175; sites not stated"}, "B2": {"name": "127I-8H9-antibody P76501A (antibody, mouse IgG1, kappa, V domains shown)", "VH": "B1 VH", "VL": "B1 VL", "modifications": "labelled with iodine-127; sites not stated"}, "B3": {"name": "8H9 antibody conjugated with p-SCN-Bn-CHX-A″-DTPA, CAR 6.1 (antibody, mouse IgG1, kappa, V domains shown)", "VH": "B1 VH", "VL": "B1 VL", "modifications": "p-SCN-Bn-CHX-A″-DTPA conjugated, CAR 6.1 per antibody; sites not stated", "notes": "Chelator conjugate, not metal-labelled"}, "B4": {"name": "8H9 antibody conjugated with p-SCN-Bn-DOTA, CAR 11.7 (antibody, mouse IgG1, kappa, V domains shown)", "VH": "B1 VH", "VL": "B1 VL", "modifications": "p-SCN-Bn-DOTA conjugated, CAR 11.7 per antibody; sites not stated", "notes": "as for B3"}}, "key": {"[1]": {"biological_target": "T1, human 2Ig-B7H3 (B7H3-2Ig-His) (human, UniProt Q5ZPR3 29-466)", "T1 construct": "Recombinant His-tagged protein immobilised on a CM5 chip; also called 21g-B7H3; B7H3-21g-His; not shown: His tag", "T1 sequence": "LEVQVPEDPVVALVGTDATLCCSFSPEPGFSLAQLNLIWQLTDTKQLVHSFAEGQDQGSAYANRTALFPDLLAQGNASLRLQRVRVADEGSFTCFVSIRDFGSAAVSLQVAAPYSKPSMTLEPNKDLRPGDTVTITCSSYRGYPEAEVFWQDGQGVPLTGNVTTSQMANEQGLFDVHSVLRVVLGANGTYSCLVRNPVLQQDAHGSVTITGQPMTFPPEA", "assay": "SPR, Biacore T200, 2Ig-B7H3-His on CM5 chip, 1:1 fit", "protocol": "(§1) Both human B7H3 41g and 21g proteins were dissolved in PBS (Phosphate-Buffered Saline) to make 0.1 mg/ml stock solution and stored in −80° C. B7-H3 proteins were immobilized onto the CM5 sensor chip using Amine Coupling Kit. Both proteins were diluted to 10 ug/ml with 10 mM Sodium acetate, pH 5.0. […] A blank immobilized surface was used as a control\n(§2) The data were analyzed by the 1:1 fitting model and default parameter setting for the rate constants using the Biacore T200 Evaluation Software, and the apparent association on rate constant (kon, ka), dissociation off rate constant (koff, kd) and equilibrium dissociation constant (KD=kd/ka) were calculated."}, "[2]": {"biological_target": "T2, human 4Ig-B7H3 (B7H3-4Ig-His) (human, UniProt Q5ZPR3 29-466)", "T2 construct": "Recombinant His-tagged protein immobilised on a CM5 chip; also called 41g-B7H3; human 4Ig-B7-H3 (dominant isoform); not shown: His tag", "T2 sequence": "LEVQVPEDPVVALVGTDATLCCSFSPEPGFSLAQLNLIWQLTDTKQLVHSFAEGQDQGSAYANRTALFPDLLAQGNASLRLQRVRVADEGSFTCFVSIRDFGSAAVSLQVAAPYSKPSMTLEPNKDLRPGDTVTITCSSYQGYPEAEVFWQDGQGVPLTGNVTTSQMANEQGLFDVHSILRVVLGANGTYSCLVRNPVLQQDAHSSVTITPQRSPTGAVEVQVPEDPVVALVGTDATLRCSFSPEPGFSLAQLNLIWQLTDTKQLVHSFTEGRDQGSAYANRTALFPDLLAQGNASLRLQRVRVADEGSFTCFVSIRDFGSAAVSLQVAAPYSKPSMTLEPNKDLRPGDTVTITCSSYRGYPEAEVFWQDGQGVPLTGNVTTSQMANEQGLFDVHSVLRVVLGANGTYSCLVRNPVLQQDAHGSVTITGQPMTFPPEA", "assay": "SPR", "protocol": "as §1, §2"}, "[3]": {"biological_target": "T1, human 2Ig-B7H3 (B7H3-2Ig-His)", "assay": "SPR", "protocol": "as §1, §2"}, "[4]": {"biological_target": "T2, human 4Ig-B7H3 (B7H3-4Ig-His)", "assay": "SPR, Biacore T200, 4Ig-B7H3-His on CM5 chip, 1:1 fit", "protocol": "as §1, §2"}, "[5]": {"biological_target": "T1, human 2Ig-B7H3 (B7H3-2Ig-His)", "assay": "SPR; CHX-A''-DTPA conjugate, CAR 3.6, labeled with cold 175Lu", "protocol": "as §1\n(§3) Binding Assays: [0143] 1. Antibodies were diluted in HBS-EP buffer (10 mM HEPES, 150 mM NaCl, 3 mM EDTA, 0.05% Surfactant P20, pH 7.4) at varying concentrations (25-50-100-200-400 nM) prior to analysis. […] 2. Samples (60 ul) were injected over the sensor surface at a flow rate of 30 ul/min over 2 min. [0145] 3. Following completion of the association phase, dissociation was monitored in HBS-EP buffer for 10 min at the same flow rate. […] 4. At the end of each cycle, the surface was regenerated using 10 mM NaOH at a flow rate of 50 ul/min over 2×15 sec."}, "[6]": {"biological_target": "T1, human 2Ig-B7H3 (B7H3-2Ig-His)", "assay": "SPR, Biacore T200, 2Ig-B7H3-His on CM5 chip, 1:1 fit; 127I-labeled 8H9, lot P76501A", "protocol": "as §1, §3"}, "[7]": {"biological_target": "T1, human 2Ig-B7H3 (B7H3-2Ig-His)", "assay": "SPR; 127I-labeled 8H9", "protocol": "as §1, §3"}, "[8]": {"biological_target": "T2, human 4Ig-B7H3 (B7H3-4Ig-His)", "assay": "SPR, Biacore T200, 4Ig-B7H3-His on CM5 chip, 1:1 fit", "protocol": "as §1, §3", "remark": "listed apart in the source"}, "[9]": {"biological_target": "T2, human 4Ig-B7H3 (B7H3-4Ig-His)", "assay": "SPR", "protocol": "as §1, §3", "remark": "listed apart in the source"}, "[10]": {"biological_target": "T1, human 2Ig-B7H3 (B7H3-2Ig-His)", "assay": "SPR", "protocol": "as §1, §3", "remark": "listed apart in the source"}, "[11]": {"biological_target": "T1, human 2Ig-B7H3 (B7H3-2Ig-His)", "assay": "SPR, Biacore T200, 2Ig-B7H3-His on CM5 chip, 1:1 fit; CHX-A''-DTPA conjugate, CAR 6.1, unlabeled"}, "[12]": {"biological_target": "T1, human 2Ig-B7H3 (B7H3-2Ig-His)", "assay": "SPR, Biacore T200, 2Ig-B7H3-His on CM5 chip, 1:1 fit", "protocol": "as §1, §3, §2", "remark": "listed apart in the source"}, "[13]": {"biological_target": "T1, human 2Ig-B7H3 (B7H3-2Ig-His)", "assay": "SPR, Biacore T200, 2Ig-B7H3-His on CM5 chip, 1:1 fit; DOTA conjugate, CAR 11.7, unlabeled"}}}
{"binder": "B1", "values": [{"measurement": "Kd", "setting": "[1]", "value": 2.34, "unit": "nM"}, {"measurement": "t ½", "setting": "[1]", "value": 5, "unit": "h"}, {"measurement": "Kd", "setting": "[2]", "value": 18.5, "unit": "nM"}, {"measurement": "t ½", "setting": "[2]", "value": 0.722, "unit": "h"}, {"measurement": "t ½", "setting": "[3]", "value": 5, "unit": "h"}, {"measurement": "Kd", "setting": "[4]", "value": 18.5, "unit": "nM"}, {"measurement": "t ½", "setting": "[4]", "value": 0.722, "unit": "h"}, {"measurement": "Kd", "setting": "[5]", "value": 2.34, "unit": "nM"}]}
{"binder": "B2", "values": [{"measurement": "t ½", "setting": "[1]", "value": 308, "unit": "h"}, {"measurement": "Kd", "setting": "[6]", "value": "< 0.0787", "unit": "nM"}, {"measurement": "Kd", "setting": "[7]", "value": "< 0.0787", "unit": "nM"}, {"measurement": "Kd", "setting": "[2]", "value": 0.666, "unit": "nM"}, {"measurement": "t ½", "setting": "[2]", "value": 4.39, "unit": "h"}, {"measurement": "t ½", "setting": "[3]", "value": 308, "unit": "h"}, {"measurement": "Kd", "setting": "[4]", "value": 0.666, "unit": "nM"}, {"measurement": "t ½", "setting": "[4]", "value": 4.39, "unit": "h"}]}
{"binder": "B3", "values": [{"measurement": "Kd", "setting": "[8]", "value": 53.8, "unit": "nM"}, {"measurement": "t ½", "setting": "[8]", "value": 0.215, "unit": "h"}, {"measurement": "Kd", "setting": "[9]", "value": 53.8, "unit": "nM"}, {"measurement": "t ½", "setting": "[9]", "value": 0.215, "unit": "h"}, {"measurement": "t ½", "setting": "[10]", "value": 0.394, "unit": "h"}, {"measurement": "Kd", "setting": "[11]", "value": 24.3, "unit": "nM"}, {"measurement": "T ½", "setting": "[12]", "value": 0.394, "unit": "h"}]}
{"binder": "B4", "values": [{"measurement": "Kd", "setting": "[13]", "value": 2.99, "unit": "nM"}, {"measurement": "Kd", "setting": "[8]", "value": 18.9, "unit": "nM"}, {"measurement": "t ½", "setting": "[8]", "value": 0.756, "unit": "h"}, {"measurement": "T ½", "setting": "[12]", "value": 3.72, "unit": "h"}]}
